The text below walks through data of patent EP2970447B1 (Eli Lilly and Company, dated 2018).

Common to all, as to assay: SPR (Biacore 2000), antibody captured on Protein A, chemokine in solution, 25°C
One experiment deals with T1, human Gro-alpha (CXCL1) (human, UniProt P09341 35-107).
T1 construct: also called human CXCL1(Gro alpha)
T1 sequence: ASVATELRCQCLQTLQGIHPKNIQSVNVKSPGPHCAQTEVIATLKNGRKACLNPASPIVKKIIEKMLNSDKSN

A further experiment deals with T2, human Gro-gamma (CXCL3) (human, UniProt P19876 35-107).
T2 construct: also called human CXCL3 (Gro gamma)
T2 sequence: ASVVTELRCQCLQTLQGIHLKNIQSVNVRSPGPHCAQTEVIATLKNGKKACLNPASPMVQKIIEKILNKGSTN

In a further experiment the target is T3, human ENA-78 (CXCL5) (human, UniProt P42830 41-114).
T3 construct: also called human CXCL5 (ENA-78)
T3 sequence: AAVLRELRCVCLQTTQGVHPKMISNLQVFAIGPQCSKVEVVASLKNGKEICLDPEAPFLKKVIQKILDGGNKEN

The target in another experiment is T4, human GCP-2 (CXCL6) (human, UniProt P80162 40-114).
T4 construct: also called human CXCL6 (GCP-2)
T4 sequence: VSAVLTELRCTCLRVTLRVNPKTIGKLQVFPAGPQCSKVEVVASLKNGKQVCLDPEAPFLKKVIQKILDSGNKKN

The next experiment addresses T5, human NAP-2 (CXCL7) (human, UniProt P02775 59-128).
T5 construct: also called human CXCL7 (NAP-2)
T5 sequence: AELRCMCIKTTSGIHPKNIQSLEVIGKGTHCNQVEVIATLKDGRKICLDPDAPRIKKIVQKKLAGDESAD

The target of another experiment is T6, human IL-8 (CXCL8) (human, UniProt P10145 28-99).
T6 construct: also called human CXCL8 (IL-8); wild type human CXCL8
T6 sequence: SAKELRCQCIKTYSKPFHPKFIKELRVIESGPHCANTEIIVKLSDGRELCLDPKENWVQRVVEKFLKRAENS

B1: Antibody 2 (antibody, human IgG4 S228P, kappa, V domains shown)
VH: QVQLVQSGAEVKKPGASVKVSCKASGYEFTSYWIHWVRQAPGQGLEWMGNISPNSGSANYNEKFKSRVTMTRDTSTSTVYMELSSLRSEDTAVYYCAREGPYSYYPSRQYYGSDLWGQGTLVTVSS
VL: EIVLTQSPATLSLSPGERATLSCRASQSISNNLHWYQQKPGQAPRLLIYYTSRSVSGIPARFSGSGSGTDFTLTISSLEPEDFAVYYCGQNNEWPEVFGGGTKVEIKR
notes: Full-length antibody expressed in NS0 cells
With B1, the koff stood at 1.53e-05 s⁻¹ with human Gro-alpha (CXCL1); 1.76e-05 s⁻¹ with human Gro-gamma (CXCL3); 1.51e-05 s⁻¹ with human ENA-78 (CXCL5); 6.11e-05 s⁻¹ with human GCP-2 (CXCL6); 2.18e-05 s⁻¹ with human NAP-2 (CXCL7); 1.24e-05 s⁻¹ with human IL-8 (CXCL8).

The koff is a measure of how fast the partners let go of each other. High values mean a short-lived complex, low ones a long-lived complex.
